Test results reported in patent US20110129816A1 (NATIONAL UNIVERSITY CORPORATION UNIVERSITY OF TOYAMA, published 2011).
Numbering of substitutions follows the chain as printed. Like-named read-outs stand apart in the source and are kept apart here.

T1: nucleoprotein of influenza virus B/Singapore/222/79 (influenza B virus B/Singapore/222/79, UniProt P04666 1-560)
T1 sequence: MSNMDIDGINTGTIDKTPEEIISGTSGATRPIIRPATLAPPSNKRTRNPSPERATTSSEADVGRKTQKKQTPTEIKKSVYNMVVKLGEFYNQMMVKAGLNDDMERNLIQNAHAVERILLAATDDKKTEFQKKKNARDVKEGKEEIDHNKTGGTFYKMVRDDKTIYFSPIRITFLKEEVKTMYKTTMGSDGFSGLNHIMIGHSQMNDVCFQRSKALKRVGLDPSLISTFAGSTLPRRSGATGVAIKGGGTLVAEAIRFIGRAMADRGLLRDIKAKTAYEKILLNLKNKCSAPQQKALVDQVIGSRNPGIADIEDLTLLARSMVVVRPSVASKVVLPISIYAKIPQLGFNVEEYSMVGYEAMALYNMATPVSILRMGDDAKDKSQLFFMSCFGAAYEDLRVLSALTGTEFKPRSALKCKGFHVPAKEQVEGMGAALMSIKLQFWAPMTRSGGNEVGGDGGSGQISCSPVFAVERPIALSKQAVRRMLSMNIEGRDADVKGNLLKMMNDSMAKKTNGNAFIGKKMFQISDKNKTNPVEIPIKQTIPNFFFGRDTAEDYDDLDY

T2: nucleoprotein of influenza virus B/Ann Arbor/1/86 (viral strain) (influenza B virus B/Ann Arbor/1/86, UniProt P11102 1-560)
T2 sequence: T1 sequence with T11A, I21T, I22T, V62I, K65R, A239T, I244T, S465N, V534I, P537Q

T3: nucleoprotein of influenza virus B/Panama/45/90 (influenza B virus B/Panama/45/90, UniProt O36433 1-560)
T3 sequence: T1 sequence with I22T, A28T, K131R, T406I

B1: human anti-influenza A virus nucleoprotein monoclonal antibody 23G312 (antibody, V domains shown)
VH: QVQLVQSGGGLVQPGRSLRLSCIASGFSFDDYAMHWVRQIPGKGLEWVSGISWNSGARGYADSVKGRFTISRDNAKNSLYLQMNSLRVGDTAFYYCARDMGAGPNDYDTSGNYPLHLYGMDVWGHGTTVTVSS
VL: EIVLTQSPATLSVSPGDRATLSCRASQSVSDKLAWYQQKPGQAPRLLIYGAYTRATGTPARFSGSGSGTEFTLSITGLQAEDFAIYYCHQYNNWPLTFGGGTKVDIK
notes: also called 23G312 antibody
B2: human anti-influenza B virus nucleoprotein monoclonal antibody 23G327 (antibody, V domains shown)
VH: QVQLVQSGAEVKRPGASVKVSCKASGYNLIDFYVNWVRQVPGQGLEWMGYINPDSGGAHYEGKFQGRVIMTRDTSINTAYMELPSLTSDDTAVYFCARGASSGLLTYYYGLDVWGEGTTVIVSS
VL: DIQMTQSPSSLSASIGDRVTITCRASPGINSYLAWYQHKPGKAPKLLIYAASTLQSGVPSRFSGSGSGTDFTLTISSLQPEDVATYYCQKYNSAPWTFGPGTKVEIK
notes: also called 23G327 antibody
B3: human anti-influenza A virus nucleoprotein monoclonal antibody 23G494 (antibody, V domains shown)
VH: QVQLVQSGGGLVKPGGSLRLSCAGSGFSFSDYYMTWIRQAPGKGLEWVSSINSGSTVTNYADSVQGRFTISRDKNSVYLQMNSLRTEDTAVYYCARDFGIKAGTSDYWGQGTLVTVSS
VL: DIQMTQSPSSLSASVGDRVTITCRASQTISNFLNWYQQKPGKAPKLLIYAASRLQSWVPSRFTGSGSGTDFALTISSLQPEDFATYYCQQTFSPRITFGPGTKVEMKR
notes: also called 23G494 antibody
B4: human anti-influenza A virus nucleoprotein monoclonal antibody 23G272 (antibody, V domains shown)
VH: QVQLVQSGAEVKKPGSSVKVSCKATGDTFSSYSISWVRQAPGQGLEWMGRVTPSFGISLYAQKFQGRVTITADRSSSTAYMELNNLTSDDTAVYYCAAGGLVVVVANHWGQGTLVTVSS
VL: EIVLTQSPATLSASVGDRVTITCRASQDITSSLGWYQQRAGEAPKLLLFAASRLESGVPSRFSGSGSGTEYTLTISNLQPEDFATYYCLHYFGSRPWTFGQGTKVEIKR
notes: also called 23G272 antibody
B5: human anti-influenza A virus nucleoprotein monoclonal antibody 23G268 (antibody, V domains shown)
VH: QVQLVQSGAVVKKPGDSVKVSCKASGYTFTTYWMHWVRQAPGQGPEWMGIVNPTGGTVMYAKKFQGRVIMTRDTSTTTVFLQLNGLESEDTAIYYCARDLGPARVDFDWLSTFVSWGQGTLVTVSS
VL: DIQMTQSPSSLSASVGDRVIITCRASQGITRHLNWYQQKSGKAPKLLIYDASSLQSGVPSRFSGSGSGADFTLTISSVQPEDFATYYCQQSYSNPPTFGPGTKVDIKR
notes: also called 23G268 antibody
B6: human anti-influenza A virus nucleoprotein monoclonal antibody 23G447 (antibody, V domains shown)
VH: QVQLQESGPGLVKPSQTLSLTCSVSGGSISNPDHYWNWIRQPPGKGLEWIGYIYYTGRTWYSPSLKSRVSLSVDTSKSQFSLNVDSVIAADTAVYYCARSHVWFGELYWGQGALVTVSS
VL: QSVLTQPPSVSAAPGQKVTISCSGRSSNVGDNYVSWYQQFPGTAPKLLIYDNTKRPSGIPDRFSGSKSGTSATLGITGLQTGDEAAYYCATWDSVLSAGVFGGGTKLTVL
notes: also called 23G447 antibody
B7: human anti-influenza A virus nucleoprotein monoclonal antibody 23G285 (antibody, V domains shown)
VH: QVQLVQSGGGVVQPGRSLRLSCAASGFTFSRYGMHWVRQAPGKGLEWVAVILYEGINKDYADSVKGRFTISRDNSKNTLYLQMNSLRAEDTAVYYCARDRELRLDYWGQGTLVTVSS
VL: QSVLTQPPSVSGAPGQRVTFSCTGSSSNIGAGYDVNWYQQLPGTAPKVLIYGNTNRPSGVPDRFSASKSGTSASLAITGLQAEDEADYYCQSYDSSLRGYVFGTGTKVSVL
notes: also called 23G285 antibody

How the values were obtained:
[1] = molecular target: nucleoprotein of influenza virus A/Panama/2007/99 (H3N2) (influenza A virus A/Panama/2007/99 (H3N2)); assay: sandwich CLIA, acridinium label M322211, S/N>=2.1
[2] = molecular target: nucleoprotein of influenza virus A/Beijing/262/95 (H1N1) (influenza A virus A/Beijing/262/95 (H1N1)); assay: sandwich CLIA, acridinium label M322211, S/N>=2.1
[3] = molecular target: T1, nucleoprotein of influenza virus …; assay: same-clone sandwich CLIA
[4] = molecular target: T2, nucleoprotein of influenza virus B/Ann …; assay: same-clone sandwich CLIA
[5] = molecular target: T3, nucleoprotein of influenza virus …; assay: same-clone sandwich CLIA
[6] = molecular target: nucleoprotein of influenza virus B/Victoria/504/00 (influenza B virus B/Victoria/504/00); assay: SPR (Biacore 2000), antibody captured by anti-IgG
[7] = molecular target: nucleoprotein of influenza virus B/Victoria/504/00 (influenza B virus B/Victoria/504/00); assay: sandwich CLIA, acridinium label M2110171, S/N>=2.1
[8] = molecular target: T1, nucleoprotein of influenza virus …; assay: same-clone sandwich CLIA; remark: listed apart in the source
[9] = molecular target: T2, nucleoprotein of influenza virus B/Ann …; assay: same-clone sandwich CLIA; remark: listed apart in the source
[10] = molecular target: T3, nucleoprotein of influenza virus …; assay: same-clone sandwich CLIA; remark: listed apart in the source
[11] = molecular target: recombinant influenza A virus nucleoprotein (influenza A virus A/Puerto Rico/8/34, UniProt P03466 1-498); assay: ELISA on coated recombinant nucleoprotein, culture supernatant
[12] = molecular target: nucleoprotein of influenza virus B/Victoria/504/00 (influenza B virus B/Victoria/504/00); assay: sandwich CLIA, acridinium label 23G327, S/N>=2.1
[13] = molecular target: nucleoprotein of influenza virus A/Beijing/262/95 (H1N1) (influenza A virus A/Beijing/262/95 (H1N1)); assay: SPR (Biacore 2000), antibody fixed directly on CM5, virus 10 µg/mL
[14] = molecular target: nucleoprotein of influenza virus A/Panama/2007/99 (H3N2) (influenza A virus A/Panama/2007/99 (H3N2)); assay: sandwich CLIA, acridinium label 23G285, S/N>=2.1
[15] = molecular target: nucleoprotein of influenza virus A/Beijing/262/95 (H1N1) (influenza A virus A/Beijing/262/95 (H1N1)); assay: sandwich CLIA, acridinium label 23G285, S/N>=2.1

Molecule | binding result [3] | binding result [4] | binding result [5] | also measured
mouse anti-influenza A virus nucleoprotein monoclonal antibody ATCC HB-65 | – | – | – | detection sensitivity [1]: 50 ng/mL; detection sensitivity [2]: 50 ng/mL
B1 | no binding (tested: S/N<2.1) | no binding (tested: S/N<2.1) | no binding (tested: S/N<2.1) | –
B2 | – | – | – | reactivity (bound antigen per bound antibody) relative to 41027 [6]: 2 fold; reactivity (bound antigen per bound antibody) relative to M2110171 [6]: 1.2 fold; reactivity (bound antigen per bound antibody) relative to antibody 2/3 [6]: 0.8 fold; detection sensitivity [7]: 31.3 ng/mL; binding result [8]: binds; binding result [9]: binds; binding result [10]: binds; binding result [11]: no binding; detection sensitivity [12]: 125 ng/mL
B3 | no binding (tested: S/N<2.1) | no binding (tested: S/N<2.1) | no binding (tested: S/N<2.1) | –
B4 | no binding (tested: S/N<2.1) | no binding (tested: S/N<2.1) | no binding (tested: S/N<2.1) | amount of bound antigens relative to HB-65 [13]: 10 fold
B5 | no binding (tested: S/N<2.1) | no binding (tested: S/N<2.1) | no binding (tested: S/N<2.1) | detection sensitivity [14]: 6.25 ng/mL; detection sensitivity [15]: 6.25 ng/mL
B6 | no binding (tested: S/N<2.1) | no binding (tested: S/N<2.1) | no binding (tested: S/N<2.1) | –
B7 | no binding (tested: S/N<2.1) | no binding (tested: S/N<2.1) | no binding (tested: S/N<2.1) | –
